The source of these data is publication PMC4066111 (Nature, 2014).

Sequences and labels used below:
B1: ycfD from Escherichia coli, full length, wild type (enzyme)
chain: MEYQLTLNWPDFLERHWQKRPVVLKRGFNNFIDPISPDELAGLAMESEVDSRLVSHQDGKWQVSHGPFESYDHLGETNWSLLVQAVNHWHEPTAALMRPFRELPDWRIDDLMISFSVPGGGVGPHLDQYDVFIIQGTGRRRWRVGEKLQMKQHCPHPDLLQVDPFEAIIDEELEPGDILYIPPGFPHEGYALENAMNYSVGFRAPNTRELISGFADYVLQRELGGNYYSDPDVPPRAHPADVLPQEMDKLREMMLELINQPEHFKQWFGEFISQSRHELDIAPPEPPYQPDEIYDALKQGEVLVRLGGLRVLRIGDDVYANGEKIDSPHRPALDALASNIALTAENFGDALEDPSFLAMLAALVNSGYWFFEG
B2: NO66 (Nucleolar protein 66), aa 183-641, wild type (enzyme)
chain: SPLRRVLAELNRIPSSRRRAARLFEWLIAPMPPDHFYRRLWEREAVLVRRQDHTYYQGLFSTADLDSMLRNEEVQFGQHLDAARYINGRRETLNPPGRALPAAAWSLYQAGCSLRLLCPQAFSTTVWQFLAVLQEQFGSMAGSNVYLTPPNSQGFAPHYDDIEAFVLQLEGRKLWRVYRPRVPTEELALTSSPNFSQDDLGEPVLQTVLEPGDLLYFPRGFIHQAECQDGVHSLHLTLSTYQRNTWGDFLEAILPLAVQAAMEENVEFRRGLPRDFMDYMGAQHSDSKDPRRTAFMEKVRVLVARLGHFAPVDAVADQRAKDFIHDSLPPVLTDRERALSVYGLPIRWEAGEPVNVGAQLTTETEVHMLQDGIARLVGEGGHLFLYYTVENSRVYHLEEPKCLEIYPQQADAMELLLGSYPEFVRVGDLPCDSVEDQLSLATTLYDKGLLLTKMPLALN
B3: Mina53 (MYC-induced nuclear antigen), aa 26-465, wild type (enzyme)
chain: AAGGPSALNFDSPSSLFESLISPIKTETFFKEFWEQKPLLIQRDDPALATYYGSLFKLTDLKSLCSRGMYYGRDVNVCRCVNGKKKVLNKDGKAHFLQLRKDFDQKRATIQFHQPQRFKDELWRIQEKLECYFGSLVGSNVYITPAGSQGLPPHYDDVEVFILQLEGEKHWRLYHPTVPLAREYSVEAEERIGRPVHEFMLKPGDLLYFPRGTIHQADTPAGLAHSTHVTISTYQNNSWGDFLLDTISGLVFDTAKEDVELRTGIPRQLLLQVESTTVATRRLSGFLRTLADRLEGTKELLSSDMKKDFIMHRLPPYSAGDGAELSTPGGKLPRLDSVVRLQFKDHIVLTVLPDQDQSDEAQEKMVYIYHSLKNSRETHMMGNEEETEFHGLRFPLSHLDALKQIWNSPAISVKDLKLTTDEEKESLVLSLWTECLIQVV

The data set “crystal structure” concerns the molecule itself. As to the kind of experiment: crystal structure.
In data set [1] the target is B2. As to the kind of experiment: cross-linking.
The target of data set [2] is L299C/C300S NO66 (aa 183-641) (human, UniProt Q9H6W3 183-641, L299C | C300S). Kind of data set: cross-linking.
The target in the next data set is Y209C Mina53 (aa 26-465) (human, UniProt Q8IUF8 26-465, Y209C). Kind of data set: cross-linking.

With B1, the binding result in “crystal structure” is recorded as “binds”.

For B2, the binding result in “crystal structure” is reported as “binds”. Take B3: the binding result in the data set “crystal structure” is listed as “binds”. For the molecule NPVEHPFGGGNHQHICKPST [rpL8 (205-224) G220C peptide], the binding result in data set [1] and in data set [2] was “binds” in each case. Regarding RGNAGCLHHHRINFDKYHP [rpL27a (32-50) G37C peptide], the binding result with Y209C Mina53 (aa 26-465) is on record as “binds”.
